B1: Gea2 (full-length Saccharomyces cerevisiae Gea2) (enzyme, UniProt P39993 1-1459, looked up)
chain: MSDREFVTVDPVTIIIKECINLSTAMRKYSKFTSQSGVAALLGGGSEIFSNQDDYLAHTFNNLNTNKHNDPFLSGFIQLRLMLNKLKNLDNIDSLTILQPFLLIVSTSSISGYITSLALDSLQKFFTLNIINESSQNYIGAHRATVNALTHCRFEGSQQLSDDSVLLKVVFLLRSIVDSPYGDLLSNSIIYDVLQTILSLACNNRRSEVLRNAAQSTMIAVTVKIFSKLKTIEPVNVNQIYINDESYTNDVLKADTIGTNVESKEEGSQEDPIGMKVNNEEAISEDDGIEEEHIHSEKSTNGAEQLDIVQKTTRSNSRIQAYADDNYGLPVVRQYLNLLLSLIAPENELKHSYSTRIFGLELIQTALEISGDRLQLYPRLFTLISDPIFKSILFIIQNTTKLSLLQATLQLFTTLVVILGNNLQLQIELTLTRIFSILLDDGTANNSSSENKNKPSIIKELLIEQISILWTRSPSFFTSTFINFDCNLDRADVSINFLKALTKLALPESALTTTESVPPICLEGLVSLVDDMFDHMKDIDREEFGRQKNEMEILKKRDRKTEFIECTNAFNEKPKKGIPMLIEKGFIASDSDKDIAEFLFNNNNRMNKKTIGLLLCHPDKVSLLNEYIRLFDFSGLRVDEAIRILLTKFRLPGESQQIERIIEAFSSAYCENQDYDPSKISDNAEDDISTVQPDADSVFILSYSIIMLNTDLHNPQVKEHMSFEDYSGNLKGCCNHKDFPFWYLDRIYCSIRDKEIVMPEEHHGNEKWFEDAWNNLISSTTVITEIKKDTQSVMDKLTPLELLNFDRAIFKQVGPSIVSTLFNIYVVASDDHISTRMITSLDKCSYISAFFDFKDLFNDILNSIAKGTTLINSSHDDELSTLAFEYGPMPLVQIKFEDTNTEIPVSTDAVRFGRSFKGQLNTVVFFRIIRRNKDPKIFSKELWLNIVNIILTLYEDLILSPDIFPDLQKRLKLSNLPKPSPEISINKSKESKGLLSTFASYLKGDEEPTEEEIKSSKKAMECIKSSNIAASVFGNESNITADLIKTLLDSAKTEKNADNSRYFEAELLFIIELTIALFLFCKEEKELGKFILQKVFQLSHTKGLTKRTVRRMLTYKILLISLCADQTEYLSKLINDELLKKGDIFTQKFFATNQGKEFLKRLFSLTESEFYRGFLLGNENFWKFLRKVTAMKEQSESIFEYLNESIKTDSNILTNENFMWVLGLLDEISSMGAVGNHWEIEYKKLTESGHKIDKENPYKKSIELSLKSIQLTSHLLEDNNDLRKNEIFAIIQALAHQCINPCKQISEFAVVTLEQTLINKIEIPTNEMESVEELIEGGLLPLLNSSETQEDQKILISSILTIISNVYLHYLKLGKTSNETFLKILSIFNKFVEDSDIEKKLQQLILDKKSIEKGNGSSSHGSAHEQTPESNDVEIEATAPIDDNTDDDNKPKLSDVEKD
notes: Gea2, guanine nucleotide exchange factor for Arf1, Saccharomyces cerevisiae, full length; also called Arf-GEF Gea2; source: Pichia pastoris (KM71H), overexpressed, purified (Ni-NTA, MonoQ, TEV cleavage, Superdex 200 Increase SEC); not shown: His6, N-terminal, cleaved

Key:
[1] = target: B1; assay: cryo-EM structure; Gea2-Arf1 complex: 1 mg Gea2, 5 mg ΔN17-Arf1 and 250 units alkaline phosphatase at 4°C overnight, then SEC (20 mM Tris pH 8.0, 300 mM NaCl, 1 mM DTT); nucleotide-free activation intermediate; ~5 mg/mL with 2 mM fluorinated fos-choline-8; details: both partners purified
[2] = target: the molecule itself; assay: cryo-EM structure; Gea2 alone, ~5 mg/mL in SEC buffer (20 mM Tris pH 8.0, 150 mM NaCl, 1 mM DTT) with 2 mM fluorinated fos-choline-8; three dimeric conformations (closed/closed, closed/open, open/open)

binding result [1]	Binder	stoichiometry N [2]
binds	ΔN17-Arf1 (S. cerevisiae Arf1 lacking its N-terminal amphipathic helix) (domain or fragment, UniProt P11076 18-181, looked up, Arf1 GTPase, Saccharomyces cerevisiae, truncated form lacking the N-terminal 17 residues (ΔN17); In the complex Arf1 is nucleotide-free (trapped with alkaline phosphatase); also called nucleotide-free Arf1; Arf1-NF; source: E. coli Rosetta2, purified as previously described (Richardson and Fromme, 2015; Richardson et al., 2012)) MRILMVGLDGAGKTTVLYKLKLGEVITTIPTIGFNVETVQYKNISFTVWDVGGQDRIRSLWRHYYRNTEGVIFVVDSNDRSRIGEAREVMQRMLNEDELRNAAWLVFANKQDLPEAMSAAEITEKLGLHSIRNRPWFIQATCATSGEGLYEGLEWLSNSLKNST	
	B1	2
